Experimental data reported in US20120324606A1.

What was measured:
[1] = molecular target: BBMV proteins (receptor binding sites) in brush border membrane vesicles from European corn borer (ECB; Ostrinia nubilalis) larval midgut; assay: homologous competition: unlabeled Cry1Ab against 0.5 nM 125I Cry1Ab on ECB BBMVs
[2] = molecular target: BBMV proteins (receptor binding sites) in brush border membrane vesicles from fall armyworm (FAW; Spodoptera frugiperda) larval midgut; assay: homologous competition: unlabeled Cry1Ab against 0.5 nM 125I Cry1Ab on FAW BBMVs
[3] = molecular target: BBMV proteins (receptor binding sites) in brush border membrane vesicles from fall armyworm (FAW; Spodoptera frugiperda) larval midgut; assay: heterologous competition: unlabeled Cry1Ab against 0.5 nM 125I Cry1Be on FAW BBMVs
[4] = molecular target: BBMV proteins (receptor binding sites) in brush border membrane vesicles from fall armyworm (FAW; Spodoptera frugiperda) larval midgut; assay: heterologous competition: unlabeled Cry1Ab against 0.5 nM 125I Cry1Be on FAW BBMVs; reference is homologous Cry1Be

Substance: Cry1Ab insecticidal protein (purified truncated Cry toxin) (from UniProt P0A370 29-612) (ligand)
- IC50 [1]: 0.5 nM
- IC50 [2]: 0.3 nM
- IC50 [3]: 1000 nM
- fold lower affinity to compete for the binding of Cry1Be [4]: 500 fold
